From US20140094416A1, “SPARC ANGIOGENIC DOMAIN AND METHODS OF USE” (Abraxis BioScience, LLC, priority 2009, published 2014) come the findings set out here.

In test [1] the test system is PC3 model. Description: Tumor volume in mice, PC3 model. The format is in vivo. How it is done: Tumor volume was measured in mice being treated with Abraxane alone (15 mg/kg administered daily for five days), Abraxane and Sutent (the Sutent administered at 30 mg/kg daily for 8 weeks), Abraxane and exogenous SPARC (the SPARC at […] administered twice a week for eight weeks), and finally, Abraxane, Sutent and SPARC together.
FIG. 1 depicts a graph plotting tumor volume (mm^3) against time (days) for these test conditions.

Test [2] concerns HUVEC. Description: HUVEC (3-D) tube formation assay. Type of test: cell-based. The procedure:
(§1) Recombinant human SPARC and genetically engineered variants were expressed and purified using HEK 293 cells maintained in hollow fiber bio-reactors. The angiogenic activity of rhSPARC and its variants was evaluated using a HUVEC tube formation assay and a HUVEC sprout formation bead assay.
(§2) In the HUVEC tube formation assay, rhSPARC was pro-angiogenic at 10 μg/mL and anti-angiogenic at 100 μg/mL. […] Additional rhSPARC variants with deletions and single/double amino acid substitutions tested in these assays included: Q3 deletion (BIO2), an inversion of the putative angiogenic domain (BIO5), a double K>Q substitution in the proposed angiogenic domain (BIO11), the genetic ablation of the putative catephsin K recognition sites (BIO8), and a proteolytic degradation product of rhSPARC. End terminal amino acid analysis indicated the angiogenic activity is localized to SEQ ID NO: 1.
FIG. 4 depicts the results of a HUVEC 3-D tube formation assay conducted with wild type SPARC and SPARC-D. The angiogenic behavior of wild type SPARC, as described in the previous example, can be seen in the graph; the angiogenic behavior increases as the concentration approaches 10 ug/ml and drops off as it approaches 100 ug/ml.

Test [3] relates to HUVEC. Nature of the test: HUVEC sprout formation bead assay. The conditions noted are these: addition of rhSPARC. Type of test: cell-based. How it is done: as §1, §2

Take `CCN(CC)CCNC(=O)c1c(C)[nH]c(/C=C2\C(=O)Nc3ccc(F)cc32)c1C` [Sutent®, reference compound]: in test [1] (Sutent 30 mg/kg daily for 8 weeks added to SPARC and Abraxane), the “efficacy of the SPARC/Abraxane combination (tumor volume)” value is on record as “markedly improved”. Besides, the “decrease in tumor volume” value in test [1] (Sutent 30 mg/kg daily for 8 weeks with Abraxane, versus Abraxane alone) was “far greater decrease in tumor volume”.

B1: SPARC: Secreted Protein, Acidic, Rich in Cysteines; recombinant human SPARC expressed and purified using HEK 293 cells (protein, listed as Homo sapiens)
chain: APQQEALPDETEVVEETVAEVTEVSVGANPVQVEVGEFDDGAEETEEEVVAENPCQNHHCKHGKVCELDENNTPMCVCQDPTSCPAPIGEFEKVCSNDNKTFDSSCHFFATKCTLEGTKKGHKLHLDYIGPCKYIPPCLDSELTEFPLRMRDWLKNVLVTLYERDEDNNLLTEKQKLRVKKIHENEKRLEAGDHPVELLARDFEKNYNMYIFPVHWQFGQLDQHPIDGYLSH
B1: in test [1] (exogenous SPARC 0.2 mg/ms twice a week for eight weeks with Abraxane, versus Abraxane alone), the tumor volume entry is listed as “tumor volume is slightly greater”. Also, the “effect on synergy of Abraxane and Sutent (tumor volume)” value in test [1] (exogenous SPARC along with Abraxane and Sutent) is “negates some of the synergistic affect”. Moreover, the angiogenic activity entry in test [2] (10 μg/mL, listed as rhSPARC) is reported as “pro-angiogenic”; in test [2] (10 μg/mL, listed as wild type SPARC), “increases”; in test [2] (100 μg/mL, listed as rhSPARC) it was “anti-angiogenic”; in test [2] (100 μg/mL, listed as wild type SPARC) it was “drops off”. In test [3], the “blood vessel maturity in sprout formation” value was “more mature blood vessels well supported by pericytes”.
